Data as given in publication PMC4802042 (2016).

B1: MKP5 catalytic domain (MKP5-CD, residues 320-467) [human] / GST-JNK1 (wild type) [human] (parent complex)
chain 1: AELTPILPFLFLGNEQDAQDLDTMQRLNIGYVINVTTHLPLYHYEKGLFNYKRLPATDSNKQNLRQYFEEAFEFIEEAHQCGKGLLIHCQAGVSRSATIVIAYLMKHTRMTMTDAYKFVKGKRPIISPNLNFMGQLLEFEEDLNNGVT
chain 2: MSRSKRDNNFYSVEIGDSTFTVLKRYQNLKPIGSGAQGIVCAAYDAILERNVAIKKLSRPFQNQTHAKRAYRELVLMKCVNHKNIIGLLNVFTPQKSLEEFQDVYIVMELMDANLCQVIQMELDHERMSYLLYQMLCGIKHLHSAGIIHRDLKPSNIVVKSDCTLKILDFGLARTAGTSFMMTPYVVTRYYRAPEVILGMGYKENVDIWSVGCIMGEMIKGGVLFPGTDHIDQWNKVIEQLGTPCPEFMKKLQPTVRTYVENRPKYAGYSFEKLFPDVLFPADSEHNKLKASQARDLLSKMLVIDASKRISVDEALQHPYINVWYDPSEAEAPPPKIPDKQLDEREHTIEEWKELIYKEVMDLLE
B2: MKP7 catalytic domain (MKP7-CD, residues 156-301) [human] / GST-JNK1 (wild type) [human] (parent complex)
chain 1: NIGPTRILPNLYLGCQRDVLNKELMQQNGIGYVLNASNTCPKPDFIPESHFLRVPVNDSFCEKILPWLDKSVDFIEKAKASNGCVLVHCLAGISRSATIAIAYIMKRMDMSLDEAYRFVKEKRPTISPNFNFLGQLLDYEKKIKNQ
chain 2: B1 chain 2

Variants of: B1
Assay: GST pull-down; parent: 100; read off a plot
With chain 2 I197D the percent of parent was ~49 % of wild-type JNK1.
With chain 2 T255A the percent of parent was ~43 % of wild-type JNK1.
For chain 2 I231D, the percent of parent was ~28 % of wild-type JNK1.
chain 2 T228A was tested, and the percent of parent was ~88 % of wild-type JNK1.
For chain 2 R263A, the percent of parent was ~98 % of wild-type JNK1.
With chain 2 H230D the percent of parent was ~98 % of wild-type JNK1.
For chain 2 Q253A, the percent of parent was ~67 % of wild-type JNK1.

Variants of: B2
Assay: GST pull-down; parent: 100; read off a plot
chain 2 D229A was tested, and the percent of parent was ~5 % of wild-type JNK1.
chain 2 V260D was tested, and the percent of parent was ~8 % of wild-type JNK1.
In the case of chain 2 T228A, the percent of parent is reported as ~72 % of wild-type JNK1.
In the case of chain 2 Q253A, the percent of parent is reported as ~92 % of wild-type JNK1.
For chain 2 I197D, the percent of parent was ~88 % of wild-type JNK1.
In the case of chain 2 T255A, the percent of parent is reported as ~30 % of wild-type JNK1.
chain 2 I231D was tested, and the percent of parent was ~37 % of wild-type JNK1.
chain 2 R263A was tested, and the percent of parent was ~73 % of wild-type JNK1.
With chain 2 H230D the percent of parent was ~96 % of wild-type JNK1.
